Experimental data taken from patent US20130136748A1 (Ablynx, published 2013).
Values joined by “and” are separate entries in the source; they are usually repeats but may differ in a detail not shown here. Equal values may be shown once. Blank lines part the entries; values can stand above or below the binder they belong to.

Tests used:
hHER3 full length [1] = biological target: T1, hHER3 full length (human, UniProt P21860 20-1342); experiment: FACS, 400 nM, competitor 04C07-biotin
T1 construct: On transfected CHO, CHO HER2/HER3, CHO EGFR/HER3 or CHO Flp-In cells; endogenous HER3 of MCF-7 and MDA-MB468 cells in the signalling assays; also called human HER3

hHER3 full length [2] = biological target: T1, hHER3 full length; experiment: FACS, 400 nM, competitor 23F05-biotin
hHER3 full length [3] = biological target: T1, hHER3 full length; experiment: cell-based or functional assay
[4] = biological target: T2, cHER3ECD (Maccaca fascicularis HER3 extracellular domain) (Macaca fascicularis, UniProt P21860 20-643 (human entry)); experiment: ELISA, coated cHER3-ECD
T2 construct: also called cyno HER3ECD; cyno HER3-ECD
T2 chain: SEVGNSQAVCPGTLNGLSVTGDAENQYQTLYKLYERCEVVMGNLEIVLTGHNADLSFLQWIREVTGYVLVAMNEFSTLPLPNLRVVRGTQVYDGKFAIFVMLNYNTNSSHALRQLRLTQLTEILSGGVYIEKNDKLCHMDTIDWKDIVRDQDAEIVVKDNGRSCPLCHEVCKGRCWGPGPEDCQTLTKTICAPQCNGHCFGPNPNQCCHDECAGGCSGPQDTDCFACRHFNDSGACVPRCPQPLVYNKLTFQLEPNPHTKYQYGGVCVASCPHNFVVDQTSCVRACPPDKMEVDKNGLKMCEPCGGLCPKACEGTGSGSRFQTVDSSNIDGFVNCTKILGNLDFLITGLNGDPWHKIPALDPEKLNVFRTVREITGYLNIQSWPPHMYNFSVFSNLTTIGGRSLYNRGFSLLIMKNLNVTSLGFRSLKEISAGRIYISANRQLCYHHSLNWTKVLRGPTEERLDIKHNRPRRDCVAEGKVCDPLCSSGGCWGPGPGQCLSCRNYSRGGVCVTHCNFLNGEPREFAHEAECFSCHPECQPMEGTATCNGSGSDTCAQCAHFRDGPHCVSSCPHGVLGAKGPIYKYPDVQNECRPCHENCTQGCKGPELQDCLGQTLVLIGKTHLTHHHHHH

[5] = biological target: T3, hHER3 ECD (human HER3 extracellular domain) (human, UniProt P21860 20-643); experiment: off rate on recombinant HER3-ECD, periplasmic extract
T3 construct: also called recombinant HER3-ECD

[6] = biological target: T4, human HER3-Fc (R&D Systems, 348-RB) (human, UniProt P21860 20-643); experiment: SPR, HER3-Fc captured; heterogenous curve, main interaction (84%)
T4 construct: Bought; also called hHER3-Fc; Fc-HER3; Fc part of the bought chimera not given, not described

[7] = biological target: T3, hHER3 ECD (human HER3 extracellular …); experiment: ELISA, coated hHER3-ECD
hHER3 full length [8] = biological target: T1, hHER3 full length; experiment: FACS, 400 nM, competitor 21B02-biotin
[9] = biological target: T3, hHER3 ECD (human HER3 extracellular …); experiment: SPR off rate on HER3-ECD
hHER3 full length [10] = biological target: T1, hHER3 full length; experiment: FACS, 400 nM, competitor 17C08-biotin
hHER3 full length [11] = biological target: T1, hHER3 full length; experiment: cell-based or functional assay; remark: listed apart in the source
hHER3 full length [12] = biological target: T1, hHER3 full length; experiment: FACS, 400 nM, competitor 04F10-biotin
[13] = biological target: T4, human HER3-Fc (R&D Systems, 348-RB); experiment: HRG competition alphascreen
hHER3 full length [14] = biological target: T1, hHER3 full length; experiment: cell-based or functional assay; remark: listed apart in the source
hHER3 full length [15] = biological target: T1, hHER3 full length; experiment: FACS, 400 nM, competitor 18E08-biotin
[16] = biological target: T4, human HER3-Fc (R&D Systems, 348-RB); experiment: 34C07 competition alphascreen
[17] = biological target: T4, human HER3-Fc (R&D Systems, 348-RB); experiment: HRG blocking alphascreen
[18] = biological target: T4, human HER3-Fc (R&D Systems, 348-RB); experiment: HRG competition alphascreen; remark: listed apart in the source

% competition (hHER3 full length [1]): 0% | % competition (hHER3 full length [2]): 10% | IC50 pHER3 blocking, MCF7 (hHER3 full length [3]): 2.49e-08 M | EC50 [4]: 0.43 nM | koff [5]: 0.00037 s⁻¹ and 0.00039 s⁻¹ | Kd [6]: 14 nM | kon [6]: 18000 M⁻¹ s⁻¹ | EC50 [7]: 0.46 nM | % competition (hHER3 full length [8]): 6% | koff [9]: 0.0003 s⁻¹ and 0.00031 s⁻¹ | % competition (hHER3 full length [10]): 56% | IC50, HRG1-β1 induced pHER3, MCF-7 (hHER3 full length [11]): 1.89e-08 M | IC50, HRG1-β1 induced pHER3, MDA-MB468 (hHER3 full length [11]): 1.07e-08 M | % competition (hHER3 full length [12]): 0% | % inhibition [13]: 65.2% | IC50 [13]: 0.815 nM | IC50, HRG1-β1 induced pAkt, MCF-7 (hHER3 full length [14]): 4.99e-08 M | IC50, HRG1-β1 induced pERK1/2, MCF-7 (hHER3 full length [14]): 1e-07 M | % competition (hHER3 full length [15]): 99% | IC50 [16]: 5.5 nM
B1: 34C07 (VHH)
VHH: EVQLVESGGGLVQPGGSLGLSCVASGSIFRINAMAWYRQAPGKQRELVAEITAGGSTNYADSVKGRFTISVDNAWNTLYLQMNSLKVEDTAVYYCNLDHYTTWDRRSAYWGQGTQVTVSS
notes: c-myc, His6-tagged form as expressed; also called 34C7; HER3MS34C07

fold lower potency than parental 04C07 [17]: 18 fold | IC50 [18]: 4.91 nM
B2: HER3MS00045 (VHH)
VHH: EVQLVESGGGLVQPGGSLRLSCAASGFTFSSYPMSWVRQAPGKGPEWVSTVSPGGITTSYADSVKGRFTISRDNSKNTLYLQMNSLRPEDTAVYYCARDLNNRGQGTLVTVSS
notes: 04C07 basic + A46E + L93A; also called HER3MS0045
